Measured values from patent publication US11530273B2, “Anti-CD73 monoclonal antibody, encoding nucleic acids and method for producing” (HELMHOLTZ ZENTRUM MÜNCHEN—DEUTSCHES FORSCHUNGSZENTRUM FÜR …, priority 2017, dated 2022).

Key:
[1] = system: peripheral blood mononuclear cells; experiment: TNFα release in mixed lymphocyte reactions (ELISA); format: cell-based; settings: 5×10^5 PBMCs each from two donors, 22E6 50 μg/ml, 37°, 24 h, versus GSF-mAb
Protocol: 5×10^5 peripheral blood mononuclear cells each from two out of three different donors (A, B, C) were co-incubated in standard cell culture medium at 37° for 24 h with 22E6 (50 μg/ml) or a GSF-mAb (50 μg/ml) and the amount of TNFα was measured with a commercial ELISA assay.
Accordingly, 5×10^5 peripheral blood mononuclear cells (PBMCs) each from two out of three different donors (A, B, C) were co-incubated in standard cell culture medium at 37° for 24 h with 22E6 (50 μg/ml) or a GSF-mAb (50 μg/ml) and the amount of TNFα was measured with a commercial ELISA assay.

[2] = target: T1, membrane-bound form of CD73 protein (Homo sapiens, UniProt P21589); experiment: Inhibitory preference: enzymatic activity of membrane-bound CD73; format: biochemical; settings: FIG. 10
T1 sequence (P21589 27-549): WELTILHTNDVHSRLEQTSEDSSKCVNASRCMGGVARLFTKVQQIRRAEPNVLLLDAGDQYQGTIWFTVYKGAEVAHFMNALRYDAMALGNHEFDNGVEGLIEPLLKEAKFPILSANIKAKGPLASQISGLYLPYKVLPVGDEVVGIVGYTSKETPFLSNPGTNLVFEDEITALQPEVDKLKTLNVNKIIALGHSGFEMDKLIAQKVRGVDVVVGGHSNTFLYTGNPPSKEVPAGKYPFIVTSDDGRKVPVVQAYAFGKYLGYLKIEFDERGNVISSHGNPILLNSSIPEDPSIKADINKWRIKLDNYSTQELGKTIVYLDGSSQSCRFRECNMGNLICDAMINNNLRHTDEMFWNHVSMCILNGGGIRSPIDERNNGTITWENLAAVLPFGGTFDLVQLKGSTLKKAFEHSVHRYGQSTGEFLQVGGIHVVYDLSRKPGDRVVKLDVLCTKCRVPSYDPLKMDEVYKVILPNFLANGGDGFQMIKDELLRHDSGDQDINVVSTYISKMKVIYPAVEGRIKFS

human CLL cells = experiment: ADO generation by human CLL cells; format: cell-based
Description: APCP is a CD73 small molecule inhibitor.
(§1) Adenosine 5′-(α,β-methylene)diphosphate (APCP) is a small-molecule specific CD73 inhibitor.

[3] = system: Peripheral blood mononuclear cells (PBMCs); experiment: IFN-γ release by PBMCs (ELISA); format: cell-based; settings: PBMCs from two donors incubated separately; 22E6 0.5 μg/ml and 5 μg/ml; 24 h; versus isotyp antibody
Protocol: FIG. 15: Massive release of interferon-gamma (IFN-γ) being induced by mAB 22E6 in comparison to an isotyp antibody. IFN-γ being a marker for the activation of cytotoxic T-cells. Peripheral blood mononuclear cells (PBMCs) from two different donors were incubated separately as indicated at 37° C. for 24 h. Interferon-gamma (IFN-γ) in the supernatant was then quantified by a standard ELISA assay.
Peripheral blood mononuclear cells (PBMCs) from two different donors were incubated separately in standard cell culture medium at 37^0 for 24 h with 22E6 (0.5 μg/ml and 5 μg/ml), APCP (1 μM and 5 μM), isotyp antibody (5 μg/ml), aPD-1 (5 μg/ml) and control (5 μg/ml). The amount of interferon-gamma (IFN-γ) in the supernatant was then measured with a commercial ELISA assay.

[4] = target: T2, CD73 on cancer derived EVs (Homo sapiens, UniProt P21589); experiment: ADO production by EVs from malignant ascites (inorganic phosphate, malachite green assay); format: biochemical; settings: phosphate-free buffer, 1 mM AMP, 60 min, versus isotype mAb
T2 construct: from tissue; host or cells: extracellular vesicles from malignant ascites (ovarian cancer patient)
T2 sequence (P21589 27-549): T1 sequence (P21589 27-549)
Protocol: FIG. 9: 22E6 blocks ADO production by EVs from malignant ascites. EVs were incubated in phosphate-free buffer in the presence of 1 mM AMP with APCP, 22E6 or an isotype mAb for 60 min and the concentration of inorganic phosphate (Pi; produced alongside the dephosphorylation of AMP) was quantified with a malachite green assay.
Accordingly, EVs were incubated in phosphate-free buffer in the presence of 1 mM AMP with APCP, 22E6 or an isotype mAb for 60 min and the concentration of inorganic phosphate (Pi; produced alongside the dephosphorylation of AMP) was quantified with a standard malachite green assay. Based on the above it was concluded that 22E6 inhibits CD73 on cancer derived EVs.

soluble CD73 protein = target: T3, soluble CD73 protein (Homo sapiens, UniProt P21589); experiment: Inhibitory preference: enzyme activity of soluble CD73; format: biochemical; settings: FIG. 10
T3 sequence (P21589 27-549 limits assumed): T1 sequence (P21589 27-549)

CD73 protein = target: T4, CD73 protein (Homo sapiens, UniProt P21589); experiment: Immunoprecipitation of CD73 from U138 glioblastoma cell lysates followed by immunoblot with commercial CD73 mAb; format: binding; settings: U138 glioblastoma lysate, versus isotype mAb
T4 construct: immunoprecipitation of the CD73 protein from lysates of U138 glioblastoma cells; endogenous in cells; host or cells: U138 glioblastoma cells (lysate)
T4 sequence (P21589 27-549): T1 sequence (P21589 27-549)
Protocol: (§2) FIG. 3: mAb 22E6 recognizes CD73 on cancer cells. […] Shown are 4 representative cell lines of a total of approx. 30 tested cell lines. U138 MG and GBM20 are glioblastoma cell lines, MDA-MB231 and T47D are human breast cancer cell lines. (B) Immunoblot with the same cell line, using a commercial CD73 mAb. […] Input=U138 lysate.
(§3) In this example, mAb 22E6 binding affinity was characterized (FIG. 3). […] Using a special flow cytometry technique, a fluorescence-activated cell sorting (FACS) with 22E6 and an anti-rat-IgG-specific, fluorophore-labeled secondary mAb, it was shown that the protein recognized by the 22E6 mAb of the invention is present on the surface of human cancer cells of a total of approx. 30 tested cell lines. U138 MG and GBM20 are glioblastoma cell lines, MDA-MB231 and T47D are human breast cancer cell lines. In order to compare the specificity of mAb 22E6 with the specificity of a commercial CD73 mAb an immunoblot with the same cell lines (U138 MG, GBM20, MDA-MB231 and T47D) was performed using the commercial CD73 mAb as shown in FIG. 3B.

[5] = system: CD73-positive human A375 melanoma cells; experiment: AMP to adenosine conversion by CD73-positive A375 melanoma cells; format: cell-based; settings: A375 melanoma cells incubated with AMP for 60 min
Protocol: CD73-positive human A375 melanoma cells were incubate with AMP for 60 min and the concentration of AMP (left) and ADO (right) in the supernatant were measured. APCP is a small-molecule specific CD73 inhibitor.
as §1

[6] = target: T5, CD73 protein on cancer cells (Homo sapiens, UniProt P21589); experiment: Flow cytometry (FACS) with 22E6 and anti-rat-IgG fluorophore-labeled secondary mAb on human cancer cell lines; format: binding; settings: approx. 30 tested human cancer cell lines, e.g. U138 MG, GBM20, MDA-MB231, T47D
T5 construct: present on the surface of human cancer cells of a total of approx. 30 tested cell lines; endogenous in cells; host or cells: about 30 human cancer cell lines, e.g. U138 MG, GBM20, MDA-MB231, T47D
T5 sequence (P21589 27-549): T1 sequence (P21589 27-549)
Protocol: as §2, §3

B1: 22E6: rat monoclonal anti-CD73 antibody from immunization with GBM20 glioblastoma EVs; VH SEQ ID NO: 9, VL SEQ ID NO: 13 (antibody, listed as Rattus norvegicus, V domains shown)
VH: EVQLVESGGGLVQPGRSMKLSCAASGFTFSFYYMAWVRQAPTKGLEWVASISTGGGNTYYRDSVKGRFTISRDDAKSTLYLQMDSLRSEETATYYCARHGGDYYGYRGGYFDYWDQGVMVTVSS
VL: DIQMTQTPSSMPASLGERVTISCRASQGINNYLNWYQQKPDGTIKPLIYYTSNLQSGVPSRFSGSGSGTDYSLTISSLEPEDFAMYYCQQYDNSPYTFGAGTKLELK
modifications: (1)..(124) VH region; SITE (26)..(32) VH complementary determining region 1 (VH CDR1); SITE (52)..(57) VH complementary determining region 2 (H-CDR2); SITE (99)..(113) VH complementary determining region 3 (H-CDR3); (1)..(107) VL region; SITE (24)..(34) VL complementary determining region 1 (L-CDR1); SITE (50)..(56) VL complementary determining region 2 (L-CDR2); SITE (89)..(97) VL complementary determining region 3 (L-CDR3)
- release of TNFα [1]: increases the release of TNFα
- inhibitory preference, membrane-bound versus soluble form of CD73 [2]: inhibitory preference for enzymatic activity of a membrane-bound form of CD73 protein
- ADO generation (human CLL cells): inhibits ADO generation by human CLL cells
- release of IFN-γ in the supernatant [3]: increases massive release of IFN-γ
- ADO production by EVs (inorganic phosphate concentration) [4]: blocks ADO production by EVs derived from malignant ascites
- effect on the enzyme activity of soluble CD73 protein (soluble CD73 protein): no or essentially no effect
- specificity for CD73 by immunoprecipitation (CD73 protein): demonstrated the specificity of 22E6
- adenosine production (AMP and ADO concentration in supernatant) [5]: blocks adenosine production
- recognition of CD73 on the surface of cancer cells [6]: recognizes CD73 protein on cancer cells
